Substrate in data set [1]: CC(=O)NCC(=O)N1CCCC1C(=O)Nc1ccc2c(C(F)(F)F)c(CC(N)=O)c(=O)oc2c1
The data set can be described thus: Hydrolysis of C-terminal coumarin dipeptide substrates by DPP-4 (kinetic constants). In kind it is biochemical. As to conditions: other: DPP-4, substrates with blocked N-termini, 23° C., pH 7.4, NC = no cleavage up to 1 mM substrate. As for the experimental part: (§1) The relative cleavage rates by FAP and several dipeptidases of N-blocked (8) and unblocked (7) Gly-Pro dipeptide substrates were measured.
(§2) The cleavage (hydrolysis) rates of various C-terminal coumarin dipeptide substrates 7-16 by FAP and DPP-4 were measured (Tables 4 and 5). The amino-terminus of the substrates was unblocked and the amino acids were varied in Table 4. The amino-terminus of the substrates was blocked and the amino acids were varied in Table 5. To extend the results obtained with the dipeptide substrate library, kinetic parameters were determined for cleavage of the unblocked dipeptide substrates by FAP (Table 4). The catalytic efficiency (kcat/Km) for substrate cleavage was greatest with Ile-Pro-AFC, followed by Ala-Pro-, Gly-Pro- and Phe-Pro-AFC, consistent with the dipeptide substrate library results (FIG. 5). […] Kinetic constants for cleavage of Ala-Pro-AFC and Gly-Pro-AFC by DPP-4 were determined (Table 4). The catalytic efficiency for Ala-Pro-AFC hydrolysis was greater than that for Gly-Pro-AFC, and consistent with the dipeptide library.
(§3) Protease Assays—Protease activity was monitored continuously using a SpectraMax M2 microplate reader (Molecular Devices Corp., Sunnyvale Calif.) in the kinetic mode. Assays were conducted at 23° C. in 50 mM Tris (pH 7.4), 100 mM NaCl, 1 mM EDTA. The excitation/emission wavelengths for the different fluorogenic substrates were 360/460 nm (AMC), 400/505 nm (AFC), 340/425 nm (MNA), 340/510 nm (EDANS), and 337/425 nm (Abs). Standard curves of the appropriate fluorescent product versus concentration were used to convert relative fluorescence units to nmol of product produced. Substrates in the X-Pro-AMC library were used in rate assays at 5 μM final concentration. […] The kinetic parameters were calculated from Michaelis-Menten plots (V0 versus [S]) with nonlinear regression analysis using GraphPad software. kcat values were calculated under the assumption that each protease was 100% active.
(§4) When saturating amounts of substrate could not be achieved, catalytic efficiencies (kcat/Km) were determined under pseudo-first order conditions ([S]<<the estimated Km) and fit to the following equation: Ln[St/S0]=−kobst, where St is the concentration of substrate remaining at time t, S0 is the initial substrate concentration and kobs is the apparent first order substrate cleavage constant equal to (kcat/Km) times ET, the total enzyme concentration (Copeland, R. (2000) Enzymes, A Practical Introduction to Structure, Mechanism, and Data Analysis, 2nd Ed., John Wiley and Sons, Inc, New York). The linear relationship of Ln[St/S0] versus time allows calculation of kcat/Km by dividing the slope of the plot by ET.

Substrate in data set [2]: NCC(=O)N1CCCC1C(=O)Nc1ccc2c(C(F)(F)F)c(CC(N)=O)c(=O)oc2c1
The data set is described as above. Type of data set: biochemical. As to conditions: other: DPP-4, substrates with unblocked N-termini, 23° C., pH 7.4. As for the experimental part:
as §1, §2, §3, §4

B1: DPP-4 (Homo sapiens) (protein)
chain: SRKTYTLTDYLKNTYRLKLYSLRWISDHEYLYKQENNILVFNAEYGNSSVFLENSTFDEFGHSINDYSISPDGQFILLEYNYVKQWRHSYTASYDIYDLNKRQLITEERIPNNTQWVTWSPVGHKLAYVWNNDIYVKIEPNLPSYRITWTGKEDIIYNGITDWVYEEEVFSAYSALWWSPNGTFLAYAQFNDTEVPLIEYSFYSDESLQYPKTVRVPYPKAGAVNPTVKFFVVNTDSLSSVTNATSIQITAPASMLIGDHYLCDVTWATQERISLQWLRRIQNYSVMDICDYDESSGRWNCLVARQHIEMSTTGWVGRFRPSEPHFTLDGNSFYKIISNEEGYRHICYFQIDKKDCTFITKGTWEVIGIEALTSDYLYYISNEYKGMPGGRNLYKIQLSDYTKVTCLSCELNPERCQYYSVSFSKEAKYYQLRCSGPGLPLYTLHSSVNDKGLRVLEDNSALDKMLQNVQMPSKKLDFIILNETKFWYQMILPPHFDKSKKYPLLLDVYAGPCSQKADTVFRLNWATYLASTENIIVASFDGRGSGYQGDKIMHAINRRLGTFEVEDQIEAARQFSKMGFVDNKRIAIWGWSYGGYVTSMVLGSGSGVFKCGIAVAPVSRWEYYDSVYTERYMGLPTPEDNLDHYRNSTVMSRAENFKQVEYLLIHGTADDNVHFQQSAQISKALVDVGVDFQAMWYTDEDHGIASSTAHQHIYTHMSHFIKQCFSLP
notes: DPP-4 (amino acids 39-766); FLAG (N); made in house; host or cells: 293 cells (secreted, purified from serum-free conditioned media)
What is called kcat is the number of substrate molecules converted per active site and unit of time at saturation. Usually kcat/Km stands for the turnover number divided by the Michaelis constant. What is called Km is the substrate concentration at which the rate is half of its maximum. For the protein B1, in data set [1], the catalytic constant (kcat) is under 0.07 s⁻¹ and the kcat/Km was determined as 36 ± 3 M⁻¹ s⁻¹. In data set [2], the Km amounted to 76 ± 10 µM, the kcat amounted to 121 ± 5 s⁻¹ and the kcat/Km was 1.6e+06 M⁻¹ s⁻¹.

For the origin of these results see patent US7399869B2, “Fibroblast activation protein inhibitor compounds and methods” (Genentech, Inc., priority 2005, dated 2008).
